In patent US20110286916A1 (published 2011):
Where a chain is given by its changes, count along the chain named.

B1: N1wc177 (scFv, V domains shown)
VH: QVQLVQSGAEVKEPGSSVRVSCKSSGGTFSNYAISWVRQAPGQGLEWMGGIIPGFGKTNYAQKFQGRVTITADASTSTTYMELRTLRSGDTAVYYCARDRGPDIGVAHFDSWGKGTMVTVSS
VL: QAVLTQPSSASGTPGQRVIISCSGSSSNIGKYIVNWYQQLPGAAPKLLIYTYNERPSGVPARFSGSTSGTSASLAITGLQSEDEADYYCASWDDSLNVVVFGGGTKLTVL
notes: phage scFv
B2: hN1S3-153 (scFv, V domains shown)
VH: QVQLQESGGGLVQPGGSLSLSCATSGFTFGNYVMRWVRQAPGKGLEWVSTITEGGGDFIYYADSVKGRFAISRDNSKSTVYLHMNGLRVEDTAVYYCAKSGGDDNSNYNFEYWGQGTLVTVSS
VL: QAVLTQPSSVSGAPGQRVIISCTGTSSNTGAGYYVNWYQQLPGAAPKVLIFGNDNRPSGVPDRFSGAKSGTSASLAITGLQAEDEADYYCQSYDRSLSGWVFGGGTKLTVL
notes: phage scFv
B3: N1wc241 (scFv, V domains shown)
VH: EVQLVQSGAEVKKPGASVKVSCKTSGYTFNDYYHHWVRQAPGQGLEWMGWINPHTGVANYAEKYKGRLAMTGDTSISTIYMDLSSLISDDTAIYFCARERSEWRNTVSSPSEYFHHWGKGTLVTVSS
VL: QSVLTQPPSASGTPGQRVTISCSGSFSNIGSNNVYWYQQLAGTAPKLLIYRNNERPSGVPDRFSGSKSGTSASLAISGLRSEDEADYYCAVRDDSLSGHYVFGSGTKVTVL
notes: phage scFv
B4: N1wc21 (scFv, V domains shown)
VH: QVQLVESGAEVKKPGASVKVSCKASGYTFTDHYIQWLRQAPGQGLEWMGWMNPKSGGTNYAQKFQGRVTLTRDTSISTAYMDLSGLRFDDTAIYFCASDPTIPPSPNYDYYYYAMDLWGKGTLVTVSS
VL: SYELTQPPSVSVSPGQTARITCSGDALPDKYVHWYQQKSGQAPVLVLFDDSKRPSGIPERFSGSSSGTVATLIISGAQVEDEGDFFCYSTDSSGNERVFGGGTKLTVL
notes: phage scFv
B5: N1wc127 (scFv, V domains shown)
VH: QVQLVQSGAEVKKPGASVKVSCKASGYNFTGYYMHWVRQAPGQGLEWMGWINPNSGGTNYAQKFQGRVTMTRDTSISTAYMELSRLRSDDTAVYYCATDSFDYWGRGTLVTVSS
VL: SYVLTQPPSTSGAPGQRVTISCSGSSSNIGSNGVNWYHHLPGTAPKLLIYSNFHRPSGVPDRFSGSKSGTSATLAISGLQSEDEADYYCAAWDDSLNDYVFGVGTKVTVL
notes: phage scFv
B6: hN1S3-108 (scFv, V domains shown)
VH: QVQLVQSGAEVRKPGASVKVSCKASGYTFTDYYLHWVRQAPGLGLEWMGWINPNTGGTDYGQKFQGRVTMTRDTSINTAYMELSSLRSDDTAVYYCARGAYDYVWGSHRYVADAFDIWGQGTTVTVSS
VL: DIVMTQSPSTLSASVGDRVTITCRASQGISSWLAWYQQKPGRAPKVLIYKASTLESGVPSRFSGSGSGTDFTLTISSLQPEDFATYYCQQSYSTPWTFGQGTKLEIK
notes: phage scFv
B7: N1wc164 (scFv, V domains shown)
VH: QVQLVQSGADVKKPGASVKISCKASGYTFTKYYMHWVRQAPGQGLEWMGIINPTNGYTSYAQKFQGRVTMTSDTSASTVSMELSSLRSEDTAVYYCTRSYSNYDSFDIWGRGTMVTVSS
VL: QAVLTQPSSVSGAPGQRITISCTGTSSNIGAGYDVEWYQHLPGTAPKLLIYRNSNRPSGVPDRFSASKSGTSASLVITGLQAEDEADYYCQSYDTRLSDSVIFGGGTKLTVL
notes: phage scFv
B8: N1wc16 (scFv, V domains shown)
VH: QVQLQQSGAEVKTPGASVKVSCKASGYTFTDNYIHWVRQAPGQGLEWMGRINVNSGATNYARKFQGRVTMTGDTSISTAYMDLSRLKSDDTAVYYCARDFRYSGVDVWGQGTMVTVSS
VL: QSVLTQPPSVSVAPGQTATLSCVGDAIERKSVHWYQQRPGQAPVLVVHDDSDRPSGIPDRISGSNSGNTATLTITRVEVGDEADYFCQVWDTSSGHDAVVFGGGTKLTVL
notes: phage scFv
B9: N1wc182 (scFv, V domains shown)
VH: QVQLVQSGPEVKKPGTSVKVSCKASGFTFTSSAVQWVRQARGQRLEWIGWIVVGSGNTNYAQKFQERVTITRDMSTSTAYMELSSLRSEDTAVYYCVADTVYWGQGTLVTVSS
VL: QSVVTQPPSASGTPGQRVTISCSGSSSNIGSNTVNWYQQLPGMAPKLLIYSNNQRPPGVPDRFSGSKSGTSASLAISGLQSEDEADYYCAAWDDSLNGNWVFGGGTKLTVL
notes: phage scFv
B10: N1wc113 (scFv, V domains shown)
VH: QMQLVQSGAEVKRPGASVNLSCKASGYSFSRYYIHWVRQAPGQGLELMGRINPGGGTTTYAQKFQGRVTLSRDTSTNTIFMELNGLTSEDTAMYYCARSNYDILAGYGPDAFDFWGQGTMVTVSS
VL: QAVLTQPSSVSGAPGQRVTISCTGSSSNIGAGNDVHWYRQFPGTAPKLLIYGNNKRPSGVSDRFSGSKSGTSASLAITGLQVEDEADYYCQSYDSSLGGSDVFGGGTKLTVL
notes: phage scFv
B11: N1wc24 (scFv, V domains shown)
VH: EVQLVESGPGLVKPSETLSLTCTVSGGSMTSNFWSWIRQTPGKGLEWIGYVLYTGSTNSNPSLKSRVTMSVDTSKNQVSLTLSSVTAADTAIYYCARGNGWYLPWGRGTMVTVSS
VL: QSVLTQPPSVSGAPRQRVTISCSGSSSNIENNIVNWYQQLPGEAPKLLIYYDNLLPSGVSDRFSGSKSGTSASLAISGLQSGDEADYYCAAWDDSLKAVVFGGGTKLTVL
notes: phage scFv
B12: N1wc170 (scFv, V domains shown)
VH: QVQLQQSGPEVKKPGASVKISCKTSGYTFSSFGISWVRQAPGQGPEWMGWVSPYSGDTDYAQKFRGRVTMTIDSSTDTAYVEMRSLRSDDTAIYYCANSPISDGSSSSYDNWGKGTLVTVSS
VL: SYELTQPPSVSVAPGQTARITCGGENIGTKSVHWYQQKSGQAPVLVIYEDKKRPSGIPDRFSGSSSGTMATLTITGAQVDDEADYYCYSADNTGDQRMFGGGTKLTVL
notes: phage scFv
B13: hN1S3-190 (scFv, V domains shown)
VH: QVQLVQSGAEVKKPGASVRISCKTSGFTFTSYFIHWVRQAPGQRPEWMGVINPSRGNADYAPRFRGRVTMTRDKSTHTVYMDLKSLRSDDAAIYYCARDRLGGLLDYYDSSDSSKNFDAFDFWGQGTLVTVSS
VL: SSELTQDPAVSVALGQTVRITCQGDSLRSNYPSWYQQKPGQAPLLVIYSENRRPSGIPDRFSASRSGNTASLTITGAQAEDEADYYCHSRGSSGNHKVFGGGTQLTVL
notes: phage scFv
B14: N1wc82 (scFv, V domains shown)
VH: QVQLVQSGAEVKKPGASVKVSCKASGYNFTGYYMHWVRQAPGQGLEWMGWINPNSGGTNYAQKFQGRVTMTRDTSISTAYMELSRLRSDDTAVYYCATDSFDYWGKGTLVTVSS
VL: QSVLTQPPSVSATPGQKVTISCSGSNSNIGNNYVSWYQQLPGTAPKLLIYDSDQRPAGIPDRFSGSKLGTSATLGITGLQTGDEADYYCATWDAGLSVLIFGGGTKLTVL
notes: phage scFv
B15: N1wc125 (scFv, V domains shown)
VH: QVQLQQSGAEVKKPGAPLKVSCKTSGFTFTGYYIHWVRQAPGQGLEWMGRVDPYNGATNFAQKFQGRVTMTTDTSTSTTYMELMSLRSDDTAVYYCARGWELDSWGQGTLVTVSS
VL: QSVLTQPASVSGSPGQSITISCTGTSSDVGGYNYVSWYQQHPGKAPKLMIYEGSKRPSGVSNRFSGSKSGNTASLTISGLQAEDEADYYCSSYTTRSTRVFGGGTKLTVL
notes: phage scFv
B16: hN1S3-135 (scFv, V domains shown)
VH: EVQLVQSGAEVKKPGASVKVSCKASGYNFTGYYMHWVRQAPGQGLEWMGWINPNSGGTNYAQKFQGRVTMTRDTSISTAYMELSRLRSDDTAVYYCATDSFDYWGKGTLVTVSS
VL: LPVLTQPPSVSEAPRQRVTISCSGSSFNIGNNAVNWYQQLPGKAPKLLIYYDDLLPSGVSDRFSGSKSGTSASLAISGLQSEDEADYYCAAWDDSLNAVVFGGGTKVTVL
notes: phage scFv
B17: N1wc129 (scFv, V domains shown)
VH: B16 VH with E1Q, M34L, N52D, N59D, K63Q, M70V, R85G, T98S, Y103H, K106Q
VL: QSVLTQPPSASGTPGQRATISCSGSGSNIGRNAVNWFQQLPGAAPKLLIYSNIHRPSGVPDRISGSKSGTSATLAISGLQSEDEADYYCATWDDSLNDYVFGTGTKLTVL
notes: phage scFv
B18: N1wc239 (scFv, V domains shown)
VH: B16 VH with Q6E, M34I, T69I, L109M
VL: QSVLTQPPSASGTPGQRVAISCSGSHSNIRSNDVYWYQQFPGTAPKLLIYSNDQRPSGVSDRFAGSKSGTSASLAISGLRSEDESDYYCATWDDSLSGVVFGGGTKLTVL
notes: phage scFv
B19: N1wc150 (scFv, V domains shown)
VH: B16 VH with K106R, L109M
VL: SYELTQPPSASGTPGQRVTISCSGSGSNIGKNTVNWYQQLPGAAPKLLIYSNNERPSGVPGRFSGSKSGTSASLAISGLQSEDETDYYCAAWDDSLNDMVFGGGTKVTVL
notes: phage scFv
B20: N1wc132 (scFv, V domains shown)
VH: B16 VH with E1Q, M34L, N59D, M70V, S84G, R85G, A97V, T98S, Y103H, K106R
VL: QSVLTQPPSASGTPGQRVTISCSGSSSNIGSNPVNWYQQLPGSAPKLLVYSDDQRPSGVPDRFSGSKSGASASLAISGLQSEDESDYYCAAWDDSQNAVVFGGGTKVTVL
notes: phage scFv
B21: hN1S3-107 (scFv, V domains shown)
VH: EVQLVQSGPEVKKPGASVKVSCKASGYTFTDYFLNWVRQAPGQGLEWIGWINPNTGGTNYAQNFQGRVTVTRDASISTAYMELRSLTSADTAIYYCARGAYDYVWGSHRYVADAFDIWGQGTLVTVSS
VL: QSVLTQPPSASGTPGQRVTISCSGSSSNIGSNTVNWYQRLPGAAPQLLIYNNDQRPSGIPDRFSGSKSGTSGSLVISGLQSEDEADYYCASWDDSLNGRVFGGGTKLTVL
notes: phage scFv

These binders were tested against T1, human full-length Notch1 with C-terminal FLAG tag, stably expressed on 293 FlpIn (TREx) cells (human, UniProt P46531 19-2555) (assay: FACS, phage scFv).
T1 construct: tetracycline/doxycycline-induced expression from pcDNA5/FRT/TO-HN1+FLAG; also called hN1; 293_N1

Row | Binder | binding result
1 | B1 | binds
2 | B2 | binds
3 | B3 | binds
4 | B4 | binds
5 | B5 | binds
6 | B6 | binds
7 | B7 | binds
8 | B8 | binds
9 | B9 | binds
10 | B10 | binds
11 | B11 | binds
12 | B12 | binds
13 | B13 | binds
14 | B14 | binds
15 | B15 | binds
16 | B16 | binds
17 | B17 | binds
18 | B18 | binds
19 | B19 | binds
20 | B20 | binds
21 | B21 | binds

Each binder was assayed against T2, human full-length Notch3 with C-terminal FLAG tag, stably expressed on 293 FlpIn (TREx) cells (human, UniProt Q9UM47 40-2321) (assay: FACS, phage scFv).
T2 construct: whole, on cells; made by the same strategy as the Notch1 line; also called 293-N3; hN3

Row | Binder | binding result
22 | B1 | binds
23 | B2 | binds
24 | B3 | binds
25 | B4 | binds
26 | B5 | binds
27 | B6 | binds
28 | B7 | binds
29 | B8 | binds
30 | B9 | binds
31 | B10 | binds
32 | B11 | binds
33 | B12 | binds
34 | B13 | binds
35 | B14 | binds
36 | B15 | binds
37 | B16 | binds
38 | B17 | binds
39 | B18 | binds
40 | B19 | binds
41 | B20 | binds
42 | B21 | binds
